Test results from US20140017701A1, “CHIMERIC PDK1 KINASES” (priority 2011, published 2014).
Entries after “also recorded” stand apart in the source; their conditions may differ.

B1: GST-PKCζ wild type (1-592) (protein)
chain: MPSRTGPKMEGSGGRVRLKAHYGGDIFITSVDAATTFEELCEEVRDMCRLHQQHPLTLKWVDSEGDPCTVSSQMELEEAFRLARQCRDEGLIIHVFPSTPEQPGLPCPGEDKSIYRRGARRWRKLYRANGHLFQAKRFNRRAYCGQCSERIWGLARQGYRCINCKLLVHKRCHGLVPLTCRKHMDSVMPSQEPPVDDKNEDADLPSEETDGIAYISSSRKHDSIKDDSEDLKPVIDGMDGIKISQGLGLQDFDLIRVIGRGSYAKVLLVRLKKNDQIYAMKVVKKELVHDDEDIDWVQTEKHVFEQASSNPFLVGLHSCFQTTSRLFLVIEYVNGGDLMFHMQRQRKLPEEHARFYAAEICIALNFLHERGIIYRDLKLDNVLLDADGHIKLTDYGMCKEGLGPGDTTSTFCGTPNYIAPEILRGEEYGFSVDWWALGVLMFEMMAGRSPFDIITDNPDMNTEDYLFQVILEKPIRIPRFLSVKASHVLKGFLNKDPKERLGCRPQTGFSDIKSHAFFRSIDWDLLEKKQALPPFQPQITDDYGLDNFDTQFTSEPVQLTPDDEDAIKRIDQSEFEGFEYINPLLLSTEESV

What was measured:
[1] = test system: PDK1; test: Protein kinase activity assay, PDK1; assay type: biochemical, human; details: PDK1 wt / PDK1 50-359
Method: For the expression and purification of protein kinases fused to GST, pEBG-2T derived plasmids were transfected into 8×14.5 cm dishes containing HEK293 cells using the PEI method ([…] and […]/14.5 cm dish). The cells were lysed after 48 h in a buffer containing 50 mM Tris-HCl pH 7.5, 1 mM EGTA, 1 mM EDTA, 1% (w/v) Triton X-100, 1 mM sodium orthovanadate, […], 5 mM sodium pyrophosphate, 0.27 M sucrose, 0.1% β-mercaptoethanol, and 1 tablet of protease inhibitor cocktail per 50 ml of buffer. Lysates were frozen in liquid nitrogen and kept at −80° C. until required. Purification involved incubation of the cleared lysate with glutathione sepharose, followed by 2 washes with 0.5 M NaCl in lysis buffer, 8 washes with a buffer containing 50 mM Tris-HCl, 0.1 mM EGTA and 0.1% β-mercaptoethanol (buffer A), and a last wash with buffer A supplemented with 0.26 M sucrose. Elution was performed with this last buffer containing 20 mM glutathione and the GST-fusion protein was cleared from resin by filtration through a “SigmaPrep” spin column (Sigma). GST-fusion proteins were aliquoted, snap frozen in liquid nitrogen and kept at −80° C. until use. Purity at this stage was above 85% as estimated by SDS-PAGE and staining with Coomassie Brilliant Blue R250. PRK2 was expressed from pEBG-2T-PRK2 (Balendran, A. et al. J Biol Chem 275, 20806-13. (2000)), SGK1 from pEBG-2T-SGK1-ΔN[Ser422Asp], PKBα from pEBG-2T-PKBα[Ser473Asp] (Biondi et al., D. R. Embo J 20, 4380-90. (2001)), PKCl from pEBG-2T-PKCl and PKCζ from pEBG-2T-PKCζ. PDK1 and S6K1 were expressed in Sf9 insect cells using a baculovirus expression system from pFastBac-PDK1 and pFastBac-56K1-T2[Thr412Glu].
The protein kinase activity assays were performed essentially as previously described (Engel, M. et al. Embo J 25, 5469-80 (2006)). The assays were done in a 96-well format and 4 μl aliquots spotted on P81 phospho-cellulose papers (Whatman) using epMotion 5070 (Eppendorf), washed in 0.01% phosphoric acid, dried, and then exposed and analyzed using PhosphoImager technology (FLA-9000 Starion, Fujifilm). Atypical PKC (aPKC) activity assays were performed in a total volume of 20 μl containing 50 mM Tris-HCl pH 7.5, 0.05 mg/ml BSA, 0.1% (v/v) 2-mercaptoethanol, 10 mM MgCl2, 100 μM [γ^32P]ATP (5-50 cpm/pmol), 0.003% Brij, 30-50 ng of aPKC, and MBP (10 μM) or PSRtide (100 μM) as the substrate. After 15 min pre-incubation, the kinase reaction was started by addition of 6 μl of an ATP-Mg mix. When required, lipid activator (LA) phosphatidylserine (100 ng) or PKC lipid activator mix (1×) was included in the pre-incubation. Low basal activity and consistent activation of 1-592 PKCζ and 498 PKCζ by LA was obtained when the pre-incubation time was started by addition of the whole mix on the enzyme.
The substrates were T308tide (200 μM) for PDK1, Kemptide (100 μM) for PKA, and Crosstide (100 μM) for SGK, PKB, S6K, and PRK2. The activity assays for PKCα, β, θ, and δ were performed in the presence of PKC lipid activator mix (1×) using 3 μM of histone H1 as substrate.
The activity assays were performed in duplicates or triplicates (in the case of the temperature stability assay) with less than 10% difference between the duplicate pairs. The activity assays shown were repeated at least twice with similar results. Moreover, most of the assays shown were repeated multiple times with enzymes from independent purifications with similar results. Representative experiments are shown. […]

[2] = molecular target: T1, GST-C1 (PKCl 131-186) / His-PKCl Δ223 interaction (Homo sapiens, UniProt P41743); test: AlphaScreen interaction assay GST-C1 / His-PKCι Δ223; assay type: binding
T1 sequence (P41743 233-596): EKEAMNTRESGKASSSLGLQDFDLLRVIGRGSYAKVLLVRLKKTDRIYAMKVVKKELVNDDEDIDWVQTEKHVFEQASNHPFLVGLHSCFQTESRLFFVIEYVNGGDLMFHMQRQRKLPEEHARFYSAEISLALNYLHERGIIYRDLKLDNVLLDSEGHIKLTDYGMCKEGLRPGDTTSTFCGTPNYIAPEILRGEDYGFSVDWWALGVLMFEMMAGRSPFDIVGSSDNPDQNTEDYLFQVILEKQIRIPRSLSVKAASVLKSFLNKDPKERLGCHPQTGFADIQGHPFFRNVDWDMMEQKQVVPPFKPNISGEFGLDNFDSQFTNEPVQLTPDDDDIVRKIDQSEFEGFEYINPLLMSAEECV
Source text: In FIG. 11 evidence is provided that the C1 domain directly interacts with the catalytic domain of PKCz. A novel assay is set-up to investigate the interaction between the C1 domain constructs fused to GST and the catalytic domain of atypical PKCs containing a 6×His-tag. The assay is based on the alphascreen technology using a donor bead coupled to anti-GST antibodies (to bind the GST-PSR-C1 or GST-C1 constructs derived from PKCl) and Ni-NTA acceptor beads that bind to His-PKCl Δ223 (catalytic domain). The interaction is measured by the emission of light from the acceptor beads that happens when the two beads are in close proximity. GST-PSR-C1 readily interacted with His-PKCl Δ223. […] PIFtide and HM polypeptides are known to interact with the PIF-pocket of AGC kinases. Thus, the assay provides evidence that polypeptides binding to the PIF-pocket displace the interaction. In addition, small compounds that inhibit both atypical PKC isoforms and have been co-crystallized with PDK1-PKCz chimera (e.g. PS315), also displace the interaction between the C1 domain and the catalytic domain. Together, the data highlight the important role of the PIF-pocket in the regulation of PKCs and the need to develop tools to improve the methods for drug development to the PIF-pocket on AGC kinases. […] Indeed modeling of the pseudosubstrate into the substrate-binding site, allows the interaction of the C1 domain with the external part of the helix α-C that is a main component of the PIF-pocket (FIG. 13). The invention further provides a method for the screening for compounds that interact with the PIF-pocket on PKC isoforms, PDK1 chimeras or other AGC kinases, as well as kits for said method and compounds identified by said method (aspects (10) to (12) of the invention).
(§1) The AlphaScreen assay was performed according to the manufacturer's general protocol (Perkin Elmer). […] Proteins and beads were incubated in the dark for 1 h 30 min at room temperature and the emission of light from the acceptor beads was measured in the EnVision reader (Perkin Elmer) and analyzed using the EnVision manager software.

[3] = molecular target: T2, GST-PSR-C1 (PKCl 100-185) / His-PKCl Δ223 interaction (Homo sapiens, UniProt P41743); test: AlphaScreen interaction assay GST-PSR-C1 / His-PKCι Δ223; assay type: binding
T2 sequence (P41743 233-596): T1 sequence (P41743 233-596)
Source text: In FIG. 11 evidence is provided that the C1 domain directly interacts with the catalytic domain of PKCz. A novel assay is set-up to investigate the interaction between the C1 domain constructs fused to GST and the catalytic domain of atypical PKCs containing a 6×His-tag. The assay is based on the alphascreen technology using a donor bead coupled to anti-GST antibodies (to bind the GST-PSR-C1 or GST-C1 constructs derived from PKCl) and Ni-NTA acceptor beads that bind to His-PKCl Δ223 (catalytic domain). The interaction is measured by the emission of light from the acceptor beads that happens when the two beads are in close proximity. GST-PSR-C1 readily interacted with His-PKCl Δ223. […] PIFtide and HM polypeptides are known to interact with the PIF-pocket of AGC kinases. Thus, the assay provides evidence that polypeptides binding to the PIF-pocket displace the interaction. […]
as §1

[4] = molecular target: T3, PSRtide (biotin-KSIYRRGSRRWRKLYRA)
T3 chain: KSIYRRGSRRWRKLYRA

| Molecule | Effect on PDK1 activity [1] | Effect on interaction of GST-C1 with His-PKCι Δ223 [2] | Effect on interaction of GST-PSR-C1 with His-PKCι Δ223 [3] | specific activity (phosphorylation of PSRtide by full length PKCζ) [4] [nmol/mg/min] |
| --- | --- | --- | --- | --- |
| O=C(O)CC(Cc1nc2cc(Cl)ccc2[nH]1)c1ccc(Cl)cc1 (stereo not shown) [PS114] | Activation | – | – | – |
| RTWALCGTPEYLAPEIILKK (activation loop of PKA) | – | not | – | – |
| VGNQLPFIGFT(P)YFRENL (VGNQLPFIGFTYFRENL) [ROCK-pHM, ROCK HM peptide phosphorylated at the HM phosphorylation site] | – | not and not able to displace | not and not able to displace | – |
| VGNQLPFIGFTYFRENL (ROCK-HM) | – | displaced; also recorded: strongly diminished | displaced; also recorded: strongly diminished | – |
| B1 | – | – | – | 60 to 80 |
